Source: patent US20100095387A1, “METHODS AND REAGENTS FOR SCREENING NEW DRUGS AND FOR TREATING ION PUMP ASSOCIATED DISORDERS AND DISEASES” (priority 2005, published 2010)
“Also recorded” adds a separate entry of the source.

Assays:
[1] = system: cultured cortical neurons; assay: Firing properties of cultured cortical neurons in normal external solution; type: cell-based, mouse; conditions: co-incubation with C-Ag15
chick skeletal myotubes = assay: Fos expression in chick muscle cultures; type: cell-based; conditions: 1 nM C-Ag15 with 50 pM C-Ag95z8
Method: Chick muscle cultures were prepared from pectoral muscles of 10-11-d-old White Leghorn chick embryos as described previously (Hilgenberg et al., 1999). Experiments were performed on 4-6-d-old cultures.
Fos expression in cortical cultures was measured by in situ enzyme-linked immunoassay (Hilgenberg et al., 1999). In brief, 11-14-d-old neuronal cultures were treated for 10 min with agrin or other agent diluted in NBM or PBS, then washed in cNBM and returned to the incubator for 2 h. Cultures were rinsed in PBS, fixed in ice cold 4% PFA, and blocked in PBS containing 0.1% Triton X-100 and 4% BSA (PBSTB) before being incubated in a primary rabbit antibody against Fos (Ab-2; Oncogene Research Products) and secondary goat antibody against […] conjugated to alkaline phosphatase (Southern Biotechnology Associates, Inc.). The level of Fos expression was determined by monitoring conversion of p-nitrophenyl phosphate to a soluble yellow reaction product at 405 nm.
To learn whether inhibition of agrin signaling by C-Ag15 might extend to other neurons or even muscle, mouse hippocampal and cerebellar neurons or chick skeletal myotubes were incubated with 50 pM C-Ag95z8 alone or in the presence of 1 nM C-Ag15, a concentration that blocks activity in cortical neurons. […] However, co-incubation with C-Ag15 inhibited Fos expression in the neurons, but had no effect on muscle. […]

[2] = system: cultured cortical neurons; assay: Glutamate excitotoxic injury of cultured cortical neurons, LDH in growth medium; type: cell-based; conditions: 10 minutes glutamate with C-Ag15; preliminary data
Method: FIG. 15. C-Ag15 is neuroprotective for excitotoxic injury. Cultured cortical eurons were treated for 10 minutes with the excitatory neurotransmitter glutamate in the presence of the indicated concentration of C-Ag15 and degree of neuronal injury assessed by monitoring the level of LDH in the growth medium. Data are expressed as a percentage of the LDH in sister cultures treated with glutamate alone. The neuroprotective effect of C-Ag15 is dose-dependent.

α3Na+/K+-ATPase = α3Na+/K+-ATPase (Mus musculus, UniProt Q6PIC6); assay: Whole cell current clamp of cultured cortical neurons, channel blockers present; type: cell-based
[3] = biological target: T1, α3 subunit of the Na+/K+-ATPase (Mus musculus, UniProt Q6PIC6); assay: Chemical cross-linking of agrin fragments to cortical neurons, immunoprecipitation and immunoblot; type: binding
T1 construct: a 110 kDa band characteristic of the native α3Na+/K+-ATPase; endogenous in cells; host or cells: primary mouse cortical neurons, 10-16 days in culture
Method: Membrane impermeant chemical cross-linking agents BS^3 and DMA were used to stabilize the bond between agrin and its binding sites on cell surface membranes. Cultured neurons were washed briefly in PBS containing 10 mM EDTA followed by preincubation with one or more agrin fragment in PBS^2+ for 30 minutes at room temperature and then cooled on ice prior to addition of a 10× solution of cross-linking agent to a final concentration of 0.1 mM. The cross-linking reaction was allowed to proceed for 30 minutes after which any unreacted cross-linker was quenched and removed by washing with ice cold PBS^2+ containing 50 mM ethanolamine. For immunoblot analysis, cells were scraped into ice-cold TI buffer (20 mM Tris, pH 7.4; 10 mM EDTA; protease inhibitors (Sigma, P8340)) then Dounce homogenized and membrane fraction recovered by centrifugation. For the immunoprecipitation studies, cells were scraped and homogenized in TI buffer containing 150 mM NaCl and 0.5% Triton X-100. Cell extracts were cleared by centrifugation and aliquots of the detergent soluble fraction incubated with the appropriate antibody at 4° C. overnight. Antigen-antibody complexes were precipitated with either protein A or protein G and resuspended in SDS-PAGE sample buffer for immunoblot analysis.
Ligand induced phosphorylation is a common first step in membrane receptor activation and inhibition of tyrosine kinase activity blocks agrin signalling in central nervous system neurons. To determine if agrin induced phosphorylation of the putative agrin receptor, membranes from neurons cross-linked to C-Ag208 or C-Ag15, alone or in combination, were dissolved, in a detergent-containing buffer and aliquots immunoprecipitated with RAg1 or the phosphotyrosine antibody mAb4G10 (Upstate). Immunoprecipitated proteins were analyzed by immunoblotting with a monoclonal antibody (9E10.2, Invitrogen) against the COON-terminal myc tag on the agrin fragments.
To confirm the results of the mass spectrometry the ability of different α-subunit antibodies to recognize the putative agrin-Na^+/K^+-ATPase complex was tested. […]

[4] = system: layer V neurons in acute cortical slices; assay: Whole cell current clamp of layer V neurons in acute cortical slices; type: cell-based, mouse

B1: C-Ag15: 15-kD COOH-terminal fragment of agrin created by deleting 37 amino acids from the NH2 terminus of C-Ag20, SEQ. ID NO. 3 (protein)
chain: MDPWIGKAAERADYMALAIVDGHLQLSYDLASQPVVLRSTVKVNTNRWLRVRAHREHREGSLQVGNEAPVTSSSPLGATQLDTDGALWLGGLQKLPVGQPLPKAYGTGFVGCLRNVVGHRQLHLLEDAVTKPELRPCPTLNSKLGPEQKLISEEDLNSAVDHHHHHH
modifications: Synthetically produced sequence
[1]
  effect on depolarization and action potential increase induced by C-Ag20 isoforms: blocked
Chick skeletal myotubes
  effect on C-Ag95z8-induced Fos expression: no effect
[2]
  neuronal injury, LDH in growth medium: neuroprotective; also recorded: dose-dependent
α3Na+/K+-ATPase
  change in membrane potential: −1.0±0.4 mV
  effect on depolarization induced by active agrin fragments: effective in blocking depolarization
  effect on ouabain induced membrane depolarization: blocked
[3]; cross-linked in combination with C-Ag208
  effect on C-Ag208 binding and phosphorylation: blocking both binding and phosphorylation
[3]; immunoprecipitation with phosphotyrosine antibody mAb4G10
  tyrosine phosphorylation of the cross-linked complex: did not induce phosphorylation
[4]; in kainic acid
  time to repolarization after addition: ≤ 10 min
[4]; kainic acid 0.5 μM + C-Ag15
  membrane potential: −66.3±1.8 mV
[4]; kainic acid plus C-Ag15
  action potential frequency: 0.01±0.005 Hz
[4]; slices
  effect on response to C-Ag200: blocked
[4]; two spontaneously active neurons
  spontaneous action potentials: reversibly inhibited
